According to the supplement of paper PMC10567573:

B1: CDC34 (parent)
chain: GGYFKARLKFPIDYPYSPPAFRFL

Variants of: B1
Assay: protein stability index of a GFP-peptide fusion (GPS, HEK-293T) (PSI 1-6); higher = more stable
Conditions: c terminus: a fixed tail appended
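Note: lentivirally expressed fusions sorted by FACS into six bins by GFP to DsRed ratio, PSI derived from sequencing read proportions per bin multiplied by bin number.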

Row | Variant | protein stability index
1 | K5S | 3.33
2 | K5E | 2.79
3 | K5H | 2.61
4 | K5R | 2.71
5 | K5I | 2.76
6 | K5D | 2.63
7 | K5T | 2.69
8 | K5A | 2.24
9 | K5N | 2.89
10 | K5P | 1.98
11 | K5M | 3.16
12 | K5V | 3.61
13 | K5Q | 3.03
14 | K5C | 2.85
15 | K5F | 3.5
16 | G1A | 2.86
17 | G1M | 3.53
18 | G1T | 3.19
19 | G1W | 2.88
20 | G1P | 2.61
21 | G1C | 2.8
22 | G1R | 2.45
23 | G1Y | 2.68
24 | G1F | 2.55

Row | Variant | protein stability index
25 | G1D | 1.94
26 | G1E | 1.58
27 | G1V | 2.45
28 | G1I | 3.18
29 | G1N | 3.03
30 | G1K | 2.88
31 | G1S | 3.14
32 | G1Q | 2.39
33 | G1H | 2.91
34 | F21A | 2.57
35 | F21R | 2.82
36 | F21I | 2.48
37 | F21G | 3.19
38 | F21C | 2.55
39 | F21E | 1.65
40 | F21M | 2.15
41 | F21S | 1.54
42 | F21N | 1.88
43 | F21K | 2.16
44 | F21D | 2.34
45 | F21Q | 3.14
46 | F4Q | 1.75
47 | F4M | 2.51
48 | F4N | 2.72

Row | Variant | protein stability index
49 | F4S | 3.07
50 | F4W | 1.73
51 | F4L | 3.57
52 | F4D | 2
53 | F4R | 2.76
54 | F4V | 3.17
55 | F4T | 1.94
56 | F4Y | 2.38
57 | F4P | 1.54
58 | F4H | 1.96
59 | F4K | 3.11
60 | F4A | 2.97
61 | F4E | 2.79
62 | F4C | 3.82
63 | Y3E | 1.29
64 | Y3G | 1.63
65 | Y3N | 2.44
66 | Y3I | 2.63
67 | Y3W | 2.33
68 | Y3R | 3.15
69 | Y3T | 2.39
70 | Y3V | 2.61
71 | Y3S | 1.54
72 | Y3Q | 3.35

Row | Variant | protein stability index
73 | Y3F | 1.77
74 | Y3A | 2.68
75 | Y3H | 3.02
76 | Y3M | 2.46
77 | Y3C | 3.72
78 | Y3P | 3.03
79 | Y3L | 2.32
80 | Y3K | 3.54
81 | F10I | 2.44
82 | F10Y | 2.87
83 | F10Q | 1.76
84 | F10N | 3.08
85 | F10H | 3.49
86 | F10M | 2.53
87 | F10D | 3.29
88 | F10G | 2.75
89 | F10E | 2.66
90 | F10V | 2.97
91 | F10C | 2.89
92 | F10W | 3.49
93 | F10S | 3.88
94 | F10R | 2.94
95 | K9M | 1.82
96 | K9Q | 2.55

Row | Variant | protein stability index
97 | K9W | 2.66
98 | K9G | 2.29
99 | K9D | 2.43
100 | K9L | 3.67
101 | K9Y | 3.41
102 | K9A | 2.74
103 | K9I | 3.15
104 | K9E | 3.56
105 | K9S | 3.19
106 | K9T | 2.11
107 | K9R | 3.6
108 | K9N | 2.39
109 | K9P | 2.57
110 | K9F | 3.11
111 | K9H | 3.05
112 | P11G | 2.07
113 | P11N | 3.45
114 | P11L | 4.07
115 | P11C | 3.95
116 | P11D | 2.06
117 | P11E | 2.75
118 | P11W | 2.87
119 | P11T | 2.28
120 | P11I | 2.84

Row | Variant | protein stability index
121 | P11Y | 3.2
122 | P11R | 2.99
123 | P11A | 2.77
124 | P11K | 2.13
125 | P11M | 3.98
126 | P11S | 3.37
127 | P19M | 3.23
128 | P19W | 3.02
129 | P19T | 3.29
130 | P19N | 3.27
131 | P19A | 2.29
132 | P19F | 2.96
133 | P19L | 3.41
134 | P19I | 2.56
135 | P19V | 2.35
136 | P19K | 2.99
137 | P19Q | 2.55
138 | P19H | 2.67
139 | P19C | 3.03
140 | P19Y | 4.32
141 | P19D | 2.21
142 | P19R | 3.69
143 | P19E | 2.21
144 | P19S | 2.64

Row | Variant | protein stability index
145 | G2W | 2.23
146 | G2A | 3.13
147 | G2H | 3.54
148 | G2M | 2.92
149 | G2S | 2.18
150 | G2V | 3.03
151 | G2E | 1.94
152 | G2D | 2.29
153 | G2T | 3.26
154 | G2C | 2.22
155 | G2K | 1.9
156 | G2P | 3.31
157 | G2Y | 3
158 | G2F | 2.03
159 | G2Q | 2.77
160 | G2I | 3.05
161 | G2N | 2.68
162 | G2L | 2.2
163 | Y16L | 2.18
164 | Y16T | 2.81
165 | Y16D | 1.57
166 | Y16V | 3.55
167 | Y16S | 2.6
168 | Y16C | 2.73

Row | Variant | protein stability index
169 | Y16R | 2.6
170 | Y16A | 2.38
171 | Y16K | 3.31
172 | Y16E | 2.23
173 | Y16I | 3.09
174 | Y16N | 2.71
175 | Y16H | 3.2
176 | Y16W | 2.43
177 | Y16F | 2.86
178 | Y16M | 1.99
179 | Y16G | 2.83
180 | S17R | 3.12
181 | S17N | 3.85
182 | S17H | 3.25
183 | S17I | 3.04
184 | S17F | 2.93
185 | S17E | 3.71
186 | S17V | 4.24
187 | S17K | 3.04
188 | S17G | 2.85
189 | S17D | 2.77
190 | S17Q | 2.58
191 | S17Y | 2.44
192 | S17W | 2.82

Row | Variant | protein stability index
193 | S17M | 2.9
194 | D13K | 3.03
195 | D13I | 3.04
196 | D13S | 2.34
197 | D13W | 2.7
198 | D13Q | 2.73
199 | D13E | 1.97
200 | D13V | 3.06
201 | D13M | 1.68
202 | D13N | 2.64
203 | D13F | 3.1
204 | D13T | 2.82
205 | D13L | 3.38
206 | D13H | 3.16
207 | D13R | 3.03
208 | D13C | 2.51
209 | D13G | 4.23
210 | D13A | 3.56
211 | I12E | 2.83
212 | I12V | 1.8
213 | I12L | 2.49
214 | I12C | 2.64
215 | I12K | 2.61
216 | I12G | 3.83

Row | Variant | protein stability index
217 | I12S | 3.06
218 | I12F | 3.1
219 | I12N | 2.22
220 | I12Y | 3.17
221 | I12W | 2.12
222 | I12M | 1.39
223 | I12R | 1.7
224 | P15Q | 2.06
225 | P15V | 2.21
226 | P15T | 2.51
227 | P15F | 3.14
228 | P15E | 2.84
229 | P15M | 3.04
230 | P15S | 3.76
231 | P15W | 2.9
232 | P15A | 3.19
233 | P15H | 3.92
234 | P15Y | 2.56
235 | P15D | 3.29
236 | P15N | 2.31
237 | P15G | 2.62
238 | P15I | 2.75
239 | P15L | 2.92
240 | P15C | 3.05

Row | Variant | protein stability index
241 | Y14N | 2.47
242 | Y14D | 3.03
243 | Y14G | 1.88
244 | Y14I | 2.16
245 | Y14K | 2.75
246 | Y14S | 4.54
247 | Y14C | 2.57
248 | Y14L | 2.75
249 | Y14Q | 1.82
250 | Y14V | 2.7
251 | Y14E | 2.06
252 | Y14M | 2.8
253 | Y14R | 2.09
254 | A6E | 2.33
255 | A6Y | 3.56
256 | A6I | 1.94
257 | A6H | 3.08
258 | A6Q | 1.71
259 | A6V | 2.15
260 | A6L | 2.36
261 | A6W | 3.16
262 | A6S | 2.47
263 | A6N | 3.51
264 | A6F | 3.63

Row | Variant | protein stability index
265 | A6P | 2.13
266 | A6G | 3.12
267 | A6M | 3.74
268 | A6K | 3.08
269 | A6D | 2.1
270 | A6R | 3.77
271 | A6T | 2.76
272 | A20Q | 2.41
273 | A20F | 3.14
274 | A20K | 3.03
275 | A20I | 3.02
276 | A20E | 3.68
277 | A20G | 2.29
278 | A20D | 2.18
279 | A20C | 1.71
280 | A20W | 2.98
281 | A20M | 3.57
282 | A20S | 2.54
283 | A20L | 2.52
284 | A20H | 3.05
285 | A20V | 2.96
286 | A20R | 3.03
287 | A20T | 2.95
288 | R7G | 2.45

Row | Variant | protein stability index
289 | R7A | 1.8
290 | R7S | 2.3
291 | R7L | 2.38
292 | R7I | 2.78
293 | R7H | 3.7
294 | R7D | 1.96
295 | R7Q | 1.72
296 | R7W | 3.18
297 | R7V | 3.25
298 | R7C | 2.9
299 | R7N | 2.57
300 | R7E | 2.77
301 | R7M | 2.51
302 | R7K | 3.83
303 | L8F | 3.29
304 | L8H | 2.54
305 | L8A | 2.66
306 | L8G | 3.75
307 | L8D | 2.24
308 | L8E | 2.3
309 | L8Y | 1.53
310 | L8C | 2.65
311 | L8V | 2.53
312 | L8R | 1.25

Row | Variant | protein stability index
313 | L8I | 3.42
314 | L8S | 2.89
315 | L8Q | 2.35
316 | L8K | 2.48
317 | L8M | 3.8
318 | L8P | 2.19
319 | L8W | 2.65
320 | P18M | 2.19
321 | P18S | 3.15
322 | P18L | 2.54
323 | P18W | 2.38
324 | P18D | 2.34
325 | P18Q | 3.79
326 | P18K | 3.31
327 | P18N | 2.51
328 | P18F | 2.42
329 | P18E | 2.34
330 | P18C | 3.4
331 | P18H | 2.33
332 | P18Y | 2.48
333 | P18A | 2.96
334 | P18G | 2.4
